From patent US20240132589A1 (ONCORESPONSE, published 2024)
Each block holds one binder with its values, some of them ahead of it.

Columns and labels:
LILRB2-Fc protein [1] = biological target: T1, LILRB2-Fc protein (human, UniProt Q8N423 22-460, limits assumed); assay: blocking ELISA, LILRB2-Fc binding to coated monomer HLA-G; Exp II
T1 construct: also called human LILRB2-Fc; not shown: Fc part
Procedure: (§1) Tumor-associated HLA-G is an HLA Class I ligand for LILRB2. Binding of HLA-G to LILRB2 induces an immune suppressive signal in LILRB2 expressing myeloid cells. To determine if the anti-LILRB2 antibodies block the HLA-G-LILRB2 interaction and prevent the induction of an inhibitory signal, blocking ELISA assays in a dose titration were performed. 384-well plates were coated with monomer HLA-G (Fred Hutchinson Cancer Research Center, No. bHLA-G) at a concentration of 5 μg/mL, diluted in PBS, then plates were incubated at RT for 1 hour. Plates were rinsed with Wash Buffer three times, then blocked with Blocking Buffer A for 30 minutes at RT. During blocking incubation step, LILRB2-Fc protein and antibody titrations were prepared in Blocking Buffer A. LILRB2-Fc protein was then incubated with antibody titrations for 30 minutes at RT to allow for binding prior to addition onto plate. Plates were rinsed three times with Wash Buffer, then 25 μL of protein/antibody mixture was added per well and incubated for 1 hour at RT. Following antibody incubation, plates were washed three times with Wash Buffer. Anti-human IgG Fc-HRP secondary antibody was diluted and added at 25 μL/well. Plates were incubated in the dark for 1 hour at RT. Following secondary antibody incubation, plates were washed four times with Wash Buffer. 25 μL/well ultra-neat TMB was added per well for development and incubated for 5 minutes at RT. Reaction was stopped using 0.3 M HCl (25 μL/well). Absorbance was read at 450 nm using the Envision. The IC₅₀ for HLA-G blocking by clone B2A-IgG4 was 0.066 μg/mL.
(§2) Select humanized IgG4 variant antibodies were tested for their ability to block binding of human LILRB2-Fc to monomer HLA-G by ELISA, using the method described in Example 7.

[2] = biological target: T2, Recombinant human LILRB2 protein (ELISA antigen) (human, UniProt Q8N423 22-460); assay: ELISA, immobilized LILRB2-His; conditioned media of transient transfections
T2 construct: also called LILRB2-His; recombinant LILRB2
Procedure: (§3) To confirm binding to human and cynomolgus LILRB2, antibodies in supernatants were evaluated for binding by enzyme-linked immunosorbent assay (ELISA). Recombinant LILRB2 proteins (human: SEQ ID NO: 48; cynomolgus) were diluted in PBS to 2 μg/mL and added to 384-well high-binding ELISA plates (Greiner Bio-One Microlon™) at 25 μL/well and incubated at 4° C. overnight. The plates were washed three times with Wash Buffer (0.05% Tween® 20 in PBS), using a microplate washer and then blocked with 90 μL/well of ELISA Blocking Buffer A (1% BSA in PBS) for 1 hour at room temperature (RT). After blocking, 25 μL/well of LILRB2 antibodies or isotype control were added to the plates and incubated for 1 hour at RT. After primary antibody binding, plates were washed three times with Wash Buffer using a microplate washer. Secondary detection antibody (HRP-goat anti-rabbit Fab fragment) was diluted to 1:3000 in assay diluent (1% BSA in PBS) and 25 μL/well was added to plates and incubated at RT protected from light for 1 hour. Following incubation, plates were washed four times with Wash Buffer, using a microplate washer. After removal of the final wash, 25 μL/well of 1-Step™ Ultra TMB-ELISA Substrate Solution (Thermo Fisher, No. 34028) was added and plates were incubated for 5-10 min at RT, protected from light. After development, the reaction was stopped by addition of 25 μL/well of 0.3 M HCl, and plates were read using an EnVision (Perkin Elmer) microplate reader at 450 nm. EC₅₀ values were calculated based on log concentration of the primary antibodies at optical density at 450 nm.
Twenty-five IgG4 variants were expressed in mammalian cell culture as a combinatorial library of the five light and five heavy chains. In addition, B2A-IgG4 was included as a transfection control. The conditioned media from these transient transfections were assayed for human IgG concentration. A plate-based ELISA (see Example 2) was performed in which LILRB2-His was immobilized, and binding of humanized mAb variants was detected via an anti-human IgG4 HRP-labeled secondary antibody. The parental rabbit/human chimera clone transfection served as the benchmark EC₅₀ positive control.

[3] = biological target: T3, Human LILRB2 on stably transduced HEK293T cells (human, UniProt Q8N423 22-597); assay: flow cytometry, HEK293T cells stably expressing human LILRB2
T3 construct: Lentiviral transduction (G&P Biosciences LTV2992); also called HEK293T-LILRB2; LILRB2-expressing HEK293T cells
Procedure: To confirm binding of LILRB2 antibodies, flow cytometry binding assays were performed using HEK293T cells stably expressing human LILRB2 (Example 3). […] The B2A-IgG1 and B2A-IgG4 chimeras bound the LILRB2-expressing HEK293T cells, with equivalent EC₅₀ values of 0.21 nM and 0.30 nM respectively.
(§4) Select humanized variant antibodies were purified and tested for their ability to bind human LILRB2 by ELISA, using the method described in Example 2, and binding to HEK293T cells expressing human LILRB2, using the method described in Example 4. Representative data are shown for IgG4 variants in Table 6.

LILRB2-Fc protein [4] = biological target: T1, LILRB2-Fc protein; assay: blocking ELISA, LILRB2-Fc binding to coated monomer HLA-G; Exp I
Procedure: as §1, §2

[5] = biological target: T2, Recombinant human LILRB2 protein (ELISA …); assay: ELISA, plate-coated recombinant human LILRB2
Procedure: as §3, §4

[6] = biological target: T4, Human LILRA5 on transiently transfected HEK293-6E cells (human, UniProt A6NI73 42-299); assay: flow cytometry, transiently transfected HEK293-6E cells
T4 construct: whole, on cells; also called hLILRA5
Procedure: (§5) To determine that the anti-LILRB2 antibodies specifically bind to LILRB2 and not other LILRB and LILRA family members, a cross-reactivity assay was performed. Cross-reactivity of the LILRB2 antibodies to other LILRB proteins was assessed by antibody binding to transiently transfected HEK293-6E cells, measured by flow cytometry. Binding was evaluated to HEK293-6E cells transiently transfected with human LILRB-1, -2, -3, -4, and 5 plasmids (Origene, Nos. RC219949, RC217935, RC211228, RC220932, RC206516) or to cells transiently transfected with human LILRA-1, -2, -4, -5, and -6 plasmids (Origene, Nos. RC210808, RC205626, RC220452, RC212310 RC212965). […] Murine primary antibodies to LILRA and LILRB targets and corresponding isotype controls were used to confirm specific binding of all targets tested (R&D Systems) while an AF647 F(ab′)₂ fragment goat anti-mouse antibody (Jackson ImmunoResearch, No. 115-606-062) was used for the detection of bound positive control antibodies. No binding of B2A-IgG4 or B2A-IgG1 to LILRB-1, -3, -4, or -5 was observed, and no binding of either antibody to LILRA-1, -2, -4, -5, or -6 was observed, confirming specificity of these antibodies.
(§6) Select humanized variant antibodies were tested for their ability to bind other LILRB or LILRA family members, using the method and commercially available positive control antibodies of Example 5.

[7] = biological target: T5, Human LILRA4 on transiently transfected HEK293-6E cells (human, UniProt P59901 24-499); assay: as above
T5 construct: whole, on cells; also called hLILRA4
Procedure: as §5, §6

[8] = biological target: T6, Human LILRA6 on transiently transfected HEK293-6E cells (human, UniProt Q6PI73 24-481); assay: as above
T6 construct: whole, on cells; also called hLILRA6
Procedure: as §5, §6

[9] = biological target: T7, Human LILRB5 on transiently transfected HEK293-6E cells (human, UniProt O75023 24-590); assay: as above
T7 construct: whole, on cells; also called hLILRB5
Procedure: as §5, §6

[10] = biological target: T8, Human LILRB1 on transiently transfected HEK293-6E cells (human, UniProt Q8NHL6 24-650); assay: as above
T8 construct: whole, on cells; also called hLILRB1
Procedure: as §5, §6

[11] = biological target: T9, Human LILRA2 on transiently transfected HEK293-6E cells (human, UniProt Q8N149 24-483); assay: as above
T9 construct: whole, on cells; also called hLILRA2
Procedure: as §5, §6

[12] = biological target: T10, Human LILRB3 on transiently transfected HEK293-6E cells (human, UniProt O75022 24-631); assay: as above
T10 construct: whole, on cells; also called hLILRB3
Procedure: as §5, §6

[13] = biological target: T11, Human LILRA1 on transiently transfected HEK293-6E cells (human, UniProt O75019 17-489); assay: as above
T11 construct: whole, on cells; also called hLILRA1
Procedure: as §5, §6

[14] = biological target: T12, Human LILRB2 on transiently transfected HEK293-6E cells (human, UniProt Q8N423 22-597); assay: as above
T12 construct: whole, on cells; also called hLILRB2
Procedure: as §5, §6

[15] = biological target: T13, Human LILRB4 on transiently transfected HEK293-6E cells (human, UniProt Q8NHJ6 22-448); assay: as above
T13 construct: whole, on cells; also called hLILRB4
Procedure: as §5, §6

[16] = biological target: T4, Human LILRA5 on transiently transfected …; assay: as above; remark: listed apart in the source
[17] = biological target: T5, Human LILRA4 on transiently transfected …; assay: as above; remark: listed apart in the source
[18] = biological target: T6, Human LILRA6 on transiently transfected …; assay: as above; remark: listed apart in the source
[19] = biological target: T7, Human LILRB5 on transiently transfected …; assay: as above; remark: listed apart in the source
[20] = biological target: T8, Human LILRB1 on transiently transfected …; assay: as above; remark: listed apart in the source
[21] = biological target: T9, Human LILRA2 on transiently transfected …; assay: as above; remark: listed apart in the source
[22] = biological target: T10, Human LILRB3 on transiently transfected …; assay: as above; remark: listed apart in the source
[23] = biological target: T11, Human LILRA1 on transiently transfected …; assay: as above; remark: listed apart in the source
[24] = biological target: T13, Human LILRB4 on transiently transfected …; assay: as above; remark: listed apart in the source

T3 sequence (Q8N423 other isoform, or with tags, fused parts or gaps limits assumed): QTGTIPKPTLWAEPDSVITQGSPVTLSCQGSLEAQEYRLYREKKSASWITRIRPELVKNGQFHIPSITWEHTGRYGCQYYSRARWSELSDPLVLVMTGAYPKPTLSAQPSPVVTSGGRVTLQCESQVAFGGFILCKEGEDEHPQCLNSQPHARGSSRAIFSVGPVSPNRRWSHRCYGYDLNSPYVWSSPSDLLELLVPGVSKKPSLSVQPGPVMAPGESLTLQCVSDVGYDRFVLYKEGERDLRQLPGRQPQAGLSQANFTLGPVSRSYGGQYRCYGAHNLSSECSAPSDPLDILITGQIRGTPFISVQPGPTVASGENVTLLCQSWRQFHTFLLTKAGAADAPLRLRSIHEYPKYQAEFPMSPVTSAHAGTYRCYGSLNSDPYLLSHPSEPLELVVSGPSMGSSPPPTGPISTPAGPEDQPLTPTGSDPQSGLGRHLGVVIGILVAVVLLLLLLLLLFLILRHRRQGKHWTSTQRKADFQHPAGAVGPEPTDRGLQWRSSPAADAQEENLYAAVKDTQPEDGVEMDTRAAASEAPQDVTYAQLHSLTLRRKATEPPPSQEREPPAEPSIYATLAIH
T2 sequence (Q8N423 other isoform, or with tags, fused parts or gaps limits assumed): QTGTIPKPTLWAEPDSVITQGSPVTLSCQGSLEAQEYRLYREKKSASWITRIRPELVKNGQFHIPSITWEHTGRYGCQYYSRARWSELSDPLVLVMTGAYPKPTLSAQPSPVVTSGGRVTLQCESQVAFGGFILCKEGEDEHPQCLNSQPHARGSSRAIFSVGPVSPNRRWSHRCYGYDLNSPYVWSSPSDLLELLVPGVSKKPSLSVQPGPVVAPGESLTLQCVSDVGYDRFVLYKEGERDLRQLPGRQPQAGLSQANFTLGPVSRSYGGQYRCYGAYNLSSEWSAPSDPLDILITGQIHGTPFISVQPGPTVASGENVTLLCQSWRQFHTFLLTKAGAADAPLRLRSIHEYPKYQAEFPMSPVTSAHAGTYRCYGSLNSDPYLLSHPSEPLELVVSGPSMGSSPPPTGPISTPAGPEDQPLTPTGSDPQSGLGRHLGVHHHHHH
T1 sequence (Q8N423 22-460 limits assumed): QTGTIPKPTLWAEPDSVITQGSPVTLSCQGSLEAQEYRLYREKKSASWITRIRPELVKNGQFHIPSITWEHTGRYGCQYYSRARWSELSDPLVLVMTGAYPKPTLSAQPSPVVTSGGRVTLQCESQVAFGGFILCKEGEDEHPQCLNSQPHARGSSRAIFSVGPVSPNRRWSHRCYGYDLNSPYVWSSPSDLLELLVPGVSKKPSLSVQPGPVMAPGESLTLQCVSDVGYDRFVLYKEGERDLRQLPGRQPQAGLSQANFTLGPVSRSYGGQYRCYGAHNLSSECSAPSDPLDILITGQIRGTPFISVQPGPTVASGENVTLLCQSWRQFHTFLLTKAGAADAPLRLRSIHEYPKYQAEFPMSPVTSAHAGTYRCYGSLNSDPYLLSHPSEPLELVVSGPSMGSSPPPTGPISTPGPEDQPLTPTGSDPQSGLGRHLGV
T11 sequence (O75019 17-489): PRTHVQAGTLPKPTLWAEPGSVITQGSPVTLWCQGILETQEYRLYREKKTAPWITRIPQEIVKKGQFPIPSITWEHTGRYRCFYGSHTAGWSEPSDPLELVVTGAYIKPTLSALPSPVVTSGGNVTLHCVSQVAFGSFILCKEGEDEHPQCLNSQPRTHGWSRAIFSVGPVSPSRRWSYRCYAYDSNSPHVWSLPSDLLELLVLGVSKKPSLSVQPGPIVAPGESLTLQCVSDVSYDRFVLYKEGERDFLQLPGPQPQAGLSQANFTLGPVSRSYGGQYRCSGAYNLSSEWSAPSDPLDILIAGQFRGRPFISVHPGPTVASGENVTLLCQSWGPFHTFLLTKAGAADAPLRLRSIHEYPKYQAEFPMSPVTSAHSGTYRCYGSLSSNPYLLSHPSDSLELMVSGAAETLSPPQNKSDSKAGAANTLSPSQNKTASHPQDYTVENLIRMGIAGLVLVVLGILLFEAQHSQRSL
T5 sequence (P59901 24-499): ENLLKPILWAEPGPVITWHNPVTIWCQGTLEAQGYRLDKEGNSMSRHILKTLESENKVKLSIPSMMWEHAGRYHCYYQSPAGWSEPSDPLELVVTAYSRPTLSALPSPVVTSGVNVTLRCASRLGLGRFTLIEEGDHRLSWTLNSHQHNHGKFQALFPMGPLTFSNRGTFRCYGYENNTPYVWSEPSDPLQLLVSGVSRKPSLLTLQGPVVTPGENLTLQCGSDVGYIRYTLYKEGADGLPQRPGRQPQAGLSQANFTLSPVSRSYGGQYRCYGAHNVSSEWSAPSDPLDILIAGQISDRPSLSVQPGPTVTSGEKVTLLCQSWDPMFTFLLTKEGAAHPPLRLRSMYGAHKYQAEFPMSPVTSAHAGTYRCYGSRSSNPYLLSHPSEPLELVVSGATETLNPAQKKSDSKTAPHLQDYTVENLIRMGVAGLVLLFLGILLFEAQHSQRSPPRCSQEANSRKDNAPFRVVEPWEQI
T7 sequence (O75023 24-590): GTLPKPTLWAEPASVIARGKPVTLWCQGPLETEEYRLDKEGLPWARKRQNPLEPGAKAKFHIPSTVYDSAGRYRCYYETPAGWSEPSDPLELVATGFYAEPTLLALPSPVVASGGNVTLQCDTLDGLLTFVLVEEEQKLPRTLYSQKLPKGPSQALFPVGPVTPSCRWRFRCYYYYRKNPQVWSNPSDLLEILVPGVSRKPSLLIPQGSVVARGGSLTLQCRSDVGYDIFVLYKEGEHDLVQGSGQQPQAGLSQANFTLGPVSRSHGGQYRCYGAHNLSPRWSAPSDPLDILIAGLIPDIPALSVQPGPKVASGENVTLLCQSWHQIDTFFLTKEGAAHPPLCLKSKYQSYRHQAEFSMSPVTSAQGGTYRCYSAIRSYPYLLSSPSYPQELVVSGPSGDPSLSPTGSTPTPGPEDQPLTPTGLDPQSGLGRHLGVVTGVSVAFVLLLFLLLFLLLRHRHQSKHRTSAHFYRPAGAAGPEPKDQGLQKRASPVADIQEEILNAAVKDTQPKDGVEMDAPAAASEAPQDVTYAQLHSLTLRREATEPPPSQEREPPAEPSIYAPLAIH
T8 sequence (Q8NHL6 24-650): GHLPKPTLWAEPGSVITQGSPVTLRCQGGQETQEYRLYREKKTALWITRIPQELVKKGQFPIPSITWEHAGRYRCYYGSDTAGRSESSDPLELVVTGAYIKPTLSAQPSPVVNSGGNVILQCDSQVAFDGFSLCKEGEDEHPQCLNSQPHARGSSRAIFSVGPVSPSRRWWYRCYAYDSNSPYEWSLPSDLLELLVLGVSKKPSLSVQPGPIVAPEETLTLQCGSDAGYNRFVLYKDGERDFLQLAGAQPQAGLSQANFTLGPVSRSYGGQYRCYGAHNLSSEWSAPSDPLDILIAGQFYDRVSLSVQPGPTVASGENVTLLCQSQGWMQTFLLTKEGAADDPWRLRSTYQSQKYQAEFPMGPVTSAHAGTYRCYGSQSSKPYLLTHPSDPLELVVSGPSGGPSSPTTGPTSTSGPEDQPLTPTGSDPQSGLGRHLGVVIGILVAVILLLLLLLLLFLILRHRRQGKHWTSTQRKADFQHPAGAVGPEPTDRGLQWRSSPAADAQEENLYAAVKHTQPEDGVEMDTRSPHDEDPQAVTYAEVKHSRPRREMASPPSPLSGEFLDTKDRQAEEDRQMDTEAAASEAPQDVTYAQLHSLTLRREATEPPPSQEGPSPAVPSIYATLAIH
T9 sequence (Q8N149 24-483): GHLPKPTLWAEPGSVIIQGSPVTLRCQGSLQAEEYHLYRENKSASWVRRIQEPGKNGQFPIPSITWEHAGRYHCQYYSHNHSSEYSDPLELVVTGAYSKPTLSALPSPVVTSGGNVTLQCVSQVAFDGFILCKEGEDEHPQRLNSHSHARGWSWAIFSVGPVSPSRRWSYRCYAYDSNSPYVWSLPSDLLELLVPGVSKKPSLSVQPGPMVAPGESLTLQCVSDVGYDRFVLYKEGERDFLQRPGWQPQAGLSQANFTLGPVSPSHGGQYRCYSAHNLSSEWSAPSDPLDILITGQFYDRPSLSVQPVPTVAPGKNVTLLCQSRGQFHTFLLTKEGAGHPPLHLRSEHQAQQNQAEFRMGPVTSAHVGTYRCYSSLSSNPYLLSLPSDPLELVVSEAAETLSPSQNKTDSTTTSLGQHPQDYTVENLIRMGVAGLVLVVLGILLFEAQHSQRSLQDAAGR
T6 sequence (Q6PI73 24-481): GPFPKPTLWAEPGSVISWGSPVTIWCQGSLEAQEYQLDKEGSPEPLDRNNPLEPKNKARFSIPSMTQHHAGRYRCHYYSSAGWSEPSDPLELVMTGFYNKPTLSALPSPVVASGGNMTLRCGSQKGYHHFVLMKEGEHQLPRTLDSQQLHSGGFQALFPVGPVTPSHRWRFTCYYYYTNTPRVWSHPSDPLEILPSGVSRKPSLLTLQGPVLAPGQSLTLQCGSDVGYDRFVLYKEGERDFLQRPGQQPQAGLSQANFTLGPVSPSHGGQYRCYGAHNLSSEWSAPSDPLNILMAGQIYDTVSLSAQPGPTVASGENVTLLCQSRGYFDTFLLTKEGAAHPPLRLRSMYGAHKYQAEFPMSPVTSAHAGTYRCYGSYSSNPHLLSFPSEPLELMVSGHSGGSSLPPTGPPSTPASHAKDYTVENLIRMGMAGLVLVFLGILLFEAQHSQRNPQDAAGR
T4 sequence (A6NI73 42-299): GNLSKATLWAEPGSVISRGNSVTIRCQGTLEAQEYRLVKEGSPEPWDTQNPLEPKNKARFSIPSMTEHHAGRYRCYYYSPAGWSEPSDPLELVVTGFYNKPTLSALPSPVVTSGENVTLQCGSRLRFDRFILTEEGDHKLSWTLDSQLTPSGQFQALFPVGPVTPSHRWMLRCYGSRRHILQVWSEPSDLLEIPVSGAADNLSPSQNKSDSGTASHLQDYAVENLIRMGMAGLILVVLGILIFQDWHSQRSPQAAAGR

IC50 (LILRB2-Fc protein [1]): 5140 ng/mL
EC50 [2]: 4.67 ng/mL
BMAX [gMFI] [3]: 9990 gMFI
EC50 [3]: 0.21 ng/mL
IC50 (LILRB2-Fc protein [4]): 5160 ng/mL
EC50 [5]: 2.75 ng/mL
B1: B2H4-35 (antibody, V domains shown)
VH: QVQLVESGGRVVQPGTPLRLSCAASGFSLSTYAMSWVRQAPGKGLEWVAWIYNDGSTYYAAWAKGRFTISRDTSKNTLYLQTNSLKPDDTAVYYCAREGDYIGYFNIWGQGTLVTVSS
VL: DVVMTQTPSSVSAALGGTVTIKCQASQSIGSNLAWYQLKPGQRPKLLIYAAATLASGGSSRFKGSGSGTDFTLTISSLEPADAATYYCQSYVSGSSDVAFGGGTEVVVK
notes: Humanized variant, human IgG4 / kappa

IC50 (LILRB2-Fc protein [1]): 5970 ng/mL
EC50 [2]: 4.5 ng/mL
BMAX [gMFI] [3]: 9950 gMFI
EC50 [3]: 0.31 ng/mL
IC50 (LILRB2-Fc protein [4]): 5850 ng/mL
EC50 [5]: 3.55 ng/mL
B2: B2H4-13 (antibody, V domains shown)
VH: QVQLEESGGRVVQPGRSLRLSCAASGFSLSTYAMSWVRQAPGKGLEWIGWIYNDGSTYYAAWAKGRFTISKDTSKTTVFLQMNSLKPDDTATYFCAREGDYIGYFNIWGQGTLVTVSS
VL: DIEMTQSPSSVSASVGDRVTLTCQASQSIGSNLAWYQQKPGQAPKLLIYAAATLASGVPSRFKGSGSGTDFTLTISSLQPEDFATYYCQSYVSGSSDVAFGGGTEVVVK
notes: as for B1

Bmax (MFI) [6]: 124 MFI
BMAX [gMFI] [7]: 108 gMFI
Bmax (MFI) [8]: 210 MFI
Bmax (MFI) [9]: 147 MFI
Bmax (MFI) [10]: 39.8 MFI
Bmax (MFI) [11]: 36.1 MFI
Bmax (MFI) [12]: 142 MFI
Bmax (MFI) [13]: 776 MFI
Bmax (MFI) [14]: 11000 MFI
Bmax (MFI) [15]: 38 MFI
binding result [16]: no binding
binding result [17]: no binding
binding result [18]: no binding
binding result [19]: no binding
binding result [20]: no binding
binding result [21]: no binding
binding result [22]: no binding
binding result [23]: no binding
binding result [24]: no binding
B3: B2H1-11 (antibody, V domains shown)
VH: QVQLEESGGRVVQPGRSLRLSCAASGFSLSTYAMSWVRQAPGKGLEWIGWIYNDGSTYYAAWAKGRFTISKDTSKTTVFLQMNSLKPDDTATYFCAREGDYIGYFNIWGQGTLVTVSS
VL: DIQMTQSPSSLSASVGDRVTITCQASQSIGSNLAWYQLKPGQRPKLLIYAAATLASGVPSRFKGSGSGTDFTLTISSLQSEDAATYYCQSYVSGSSDVAFGGGTEVVVK
notes: Humanized variant, human IgG1 / kappa
